These results are taken from patent US20140178388A1 (INDUSTRIAL TECHNOLOGY RESEARCH INSTITUTE, published 2014).

Experiment [1] deals with T1, mouse CD3 on mouse spleen T lymphocytes (mouse, UniProt P22646 22-189).
T1 construct: whole, on cells; also called mouse T lymphocytes
Put plainly: flow cytometry (MFI) on purified mouse spleen T lymphocytes, serial dilution.

Experiment [2] addresses T2, human CD3 (TCR-CD3 complex) on human T cells (human, UniProt P07766 23-207).
T2 construct: whole, on cells; The other subunits of the complex on the cells are not described; also called CD3ε chain; CD3(+) Jurkat T cells
Put plainly: flow cytometry (MFI) on purified human T lymphocytes, serial dilution.

T1 sequence (P22646 22-189): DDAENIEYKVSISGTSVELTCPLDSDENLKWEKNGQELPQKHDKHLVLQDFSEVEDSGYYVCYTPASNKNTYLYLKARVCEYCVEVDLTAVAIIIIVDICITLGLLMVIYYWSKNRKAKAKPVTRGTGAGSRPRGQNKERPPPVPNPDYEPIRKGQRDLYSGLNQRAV

Molecule “hamster anti-mouse CD3 antibody (145-2C11)” gave a Kd in experiment [1] of 15 nM.

B1: h145FabCSA trimer (Fab, V domains shown)
VH: EVQLQESGGGLVQPGKSLKLSCEASGFTFSGYGMHWVRQAPGRGLESVAYITSSSINIKYADAVKGRFTVSRDNAKNLLFLQMNILKSEDTAMYYCARFDWDKNYWGQGTMVTVSS
VL: DIQMTQSPSSLPASLGDRVTINCQASQDISNYLNWYQQKPGKAPKLLIYYTNKLADGVPSRFSGSGSGRDSSFTISSLESEDIGSYYCQQYYNYPWTFGPGTKVEIKR
notes: Trimeric Fab-collagen-like peptide fusion from the Superdex 200 peak 2 fraction; Expressed in NS0 cells; also called trimeric h145FabCSA
Take B1: in experiment [1], the affinity, expressed as Kd, was 4 nM and the “fold greater binding strength than 145-2C11” value is 3.75 fold.

B2: hOKT3FabCSA trimer (Fab, V domains shown)
VH: QVQLVQSGGGVVQPGRSLRLSCKASGYTFTRYTMHWVRQAPGKGLEWIGYINPSRGYTNYNQKVKDRFTISRDNSKNTAFLQMDSLRPEDTGVYFCARYYDDHYCLDYWGQGTPVTVSS
VL: DIQMTQSPSSLSASVGDRVTITCSASSSVSYMNWYQQTPGKAPKRWIYDTSKLASGVPSRFSGSGSGTDYTFTISSLQPEDIATYYCQQWSSNPFTFGQGTKLQITR
notes: Trimeric Fab-collagen-like peptide fusion from the Superdex 200 peak 2 fraction; Expressed in CHO-S cells; also called trimeric hOKT3FabCSA; trivalent hOKT3FabCSA
Consider B2, for which, in experiment [2], the dissociation constant (Kd) came to 0.02 nM and the “fold greater binding strength than hOKT3IgG-AA” value stood at 7.5 fold.

B3: low-Fc binding anti-human CD3 antibody-hOKT3IgG-AA (antibody, V domains shown)
VH: B2 VH
VL: DIQMTQSPSSLSASVGDRVTITCSASSSVSYMNWYQQTPGKAPKRWIYDTSKLASGVPSRFSGSGSGTDYTFTISSLQPEDIATYYCQQWSSNPFTFGQGTKLQIT
notes: also called hOKT3IgG-AA (dimer)
The molecule B3 yielded a Kd in experiment [2] of 0.15 nM.
